Assays:
Assay in all cases: SPR; Biacore X100, CM5 chip, RT, 1:1 binding model; methods: antibody (4 μg/mL) captured by anti-human Fc IgG to about 100 RU, pentamer or trimer in five 2-fold dilutions injected at 30 μL/min, 90 s association, 600 s dissociation (the legend of Fig. 5 tells the reverse orientation)
[1] = target: pentamer mutant UL128_T94A (human cytomegalovirus | human cytomegalovirus strain VR1814)
[2] = target: pentamer mutant UL128_K47A (human cytomegalovirus | human cytomegalovirus strain VR1814)
[3] = target: pentamer mutant UL131A_K27A (human cytomegalovirus | human cytomegalovirus strain VR1814)
[4] = target: pentamer mutant UL131A_E23A (human cytomegalovirus | human cytomegalovirus strain VR1814)

B1: MAb 9I6 (antibody, V domains shown)
VH: EVQLVQSGAEVKKPGESLKISCRESGDTFPAYWIAWVRQMPGKGLEWMGIIYPIDSETTYSPSFQGQVTISADKSINTAYLQWSSLKASDSAIYYCARGTSTGLREAFHIWGQGTMVTVSS
VL: DVVMTQSPLSLAVTLGQPAYISCRSSQSLGYSDGNTYLNWFQQRPGQSPRRLIYEVSNRDSGVPDRFSGSGSGTDFTLKISRVEAEDVGTYYCMQGTHWPPMCSFGQGTKLEIK
With B1 the Kd [1] was 0.57 nM, the koff [1] was 3e-05 s⁻¹ and the kon [1] was 53100 M⁻¹ s⁻¹. It also gave a Kd [2] of 1.5 nM, a koff [2] of 7.38e-05 s⁻¹ and a kon [2] of 49200 M⁻¹ s⁻¹. The Kd [3] was 1.91 nM, the koff [3] was 0.000181 s⁻¹ and the kon [3] was 94700 M⁻¹ s⁻¹. It also gave a Kd [4] of 2.83 nM, a koff [4] of 0.000115 s⁻¹ and a kon [4] of 40700 M⁻¹ s⁻¹.
